Results: patent US20130189218A1, “PHARMACEUTICAL FORMULATIONS FOR FUMAGILLIN DERIVATIVE-PHF CONJUGATES” (Mersana Therapeutics, Inc., priority 2011, published 2013)

Legend:
Assay type in all cases: physicochemical
[1] = Solution appearance of Composition C batches
Procedure: Physical properties of select Composition C batches were measured as described in the Methods section.

[2] = Peak molecular weight at ~3 and ~60 mg/ml (concentration dependence)
Procedure: (§1) The molecular weight distributions of Composition C conjugate, PHF and PHF-GA were measured by high performance size exclusion chromatography (HPSEC) with RI detection. Separation was carried out on a GE Healthcare Superose 6 column using 50 mM pH=7.4 phosphate 0.9% NaCl as an fluent. Dextran standards (American Polymer Standards Corporation) were used to establish a calibration curve of known molecular weight vs. retention time. Molecular weight distributions (weight average molecular weight (“Mw”), D90, D50, D10) were calculated based on the polysaccharide standard curve.
Peak molecular weight values were measured for Composition C batches in solution at ˜3 mg/ml and at ˜60 mg/ml.

[3] = HPSEC trace / molecular weight distribution of different Compound D loading conjugates
Procedure: as §1
Composition C batches were analyzed by high performance size exclusion chromatography. […] Batches B and E have the additional desirable property of relatively high Compound D loading; approximately 3-fold higher than Batches C and F.

## CO[C@H]1[C@H](C2(C)OC2CC=C(C)C)[C@]2(CC[C@H]1OC(=O)NCc1ccc(NC(=O)CCCC(=O)O)cc1)CO2 (some centres unmarked) [Compound D]
[1]
  Solution Appearance: Very slight
[2]; Mp at ~60 mg/ml vs ~3 mg/ml
  % Change: +58%
[2]; ~3 mg/ml in solution
  Mp at ~3 mg/ml: 57.8 kDa
[2]; ~60 mg/ml in solution
  Mp at ~60 mg/ml: 91.2 kDa
[3]
  SEC Trace: 2 peaks (high
